Laboratory results from the Human Domainome abundance scans (Beltran et al. 2025).
± gives the uncertainty stated by the source.

B1: Cell division cycle and apoptosis regulator protein 1, residues 625 to 674; numbered along this chain, Q8IX12 (parent)
chain: ISTPTHWSKLDPKTMKVNDLRKELESRALSSKGLKSQLIARLTKQLKVEE

Variants of: B1
Assay: abundance fitness (aPCA) (normalised: wild type 0, dead -1); higher = more abundant; growth selection in yeast, the domain comes from the species named
Conditions: Homo sapiens
Variant ISTPTHWSKLDPKTMKVNDLRKELESRALSSKGLASQLIARLTKQLKVEE [K35A] has an abundance fitness of -0.341 ± 0.051.
In the case of ISTPTHWSKLDPKTMKVNDLRKELESRALSWKGLKSQLIARLTKQLKVEE [S31W], the abundance fitness is reported as -0.097 ± 0.029.
For ISTPTHWSKLDPKTMKVNDLRKELESRALSMKGLKSQLIARLTKQLKVEE [S31M], the abundance fitness was -0.066 ± 0.038.
Work on ISTPTHWSKLDPKTMKVNDLRKELESRALSDKGLKSQLIARLTKQLKVEE [S31D] yielded an abundance fitness of -0.156 ± 0.05.
For ISTPTHWSKLDPKTMKVNDLRKELESRALSIKGLKSQLIARLTKQLKVEE [S31I], the abundance fitness was 0.047 ± 0.06.
For ISTPTHWSKLDPKTMKVNDLRKELESRALSTKGLKSQLIARLTKQLKVEE [S31T], the abundance fitness was -0.052 ± 0.038.
Work on ISTPTHWSKLDPKTMKVNDLRKELESRALSHKGLKSQLIARLTKQLKVEE [S31H] yielded an abundance fitness of 0.031 ± 0.059.
Variant ISTPTHWSKLDPKTMKVNDLRKELESRALSVKGLKSQLIARLTKQLKVEE [S31V] has an abundance fitness of -0.041 ± 0.041.
In the case of ISTPTHWSKLDPKTMKVNDLRKELESRALSNKGLKSQLIARLTKQLKVEE [S31N], the abundance fitness is reported as -0.095 ± 0.059.
Variant ISTPTHWSKLDPKTMKVNDLRKELESRALSEKGLKSQLIARLTKQLKVEE [S31E] has an abundance fitness of -0.106 ± 0.044.
Work on ISTPTHWSKLDPKTMKVNDLRKELESRALSAKGLKSQLIARLTKQLKVEE [S31A] yielded an abundance fitness of 0.005 ± 0.034.
ISTPTHWSKLDPKTMKVNDLRKELESRALSPKGLKSQLIARLTKQLKVEE [S31P] gave an abundance fitness of -0.062 ± 0.045.
ISTPTHWSKLDPKTMKVNDLRKELESRALSGKGLKSQLIARLTKQLKVEE [S31G] showed an abundance fitness of 0.014 ± 0.027.
ISTPTHWSKLDPKTMKVNDLRKELESRALSFKGLKSQLIARLTKQLKVEE [S31F] gave an abundance fitness of -0.101 ± 0.053.
In the case of ISTPTHWSKLDPKTMKVNDLRKELESRALSKKGLKSQLIARLTKQLKVEE [S31K], the abundance fitness is reported as -0.132 ± 0.057.
Variant ISTPTHWSKLDPKTMKVNDLRKELESRALSQKGLKSQLIARLTKQLKVEE [S31Q] has an abundance fitness of 0.079 ± 0.032.
Work on ISTPTHWSKLDPKTMKVNDLRKELESRALSYKGLKSQLIARLTKQLKVEE [S31Y] yielded an abundance fitness of -0.123 ± 0.071.
ISTPTHWSKLDPKTMKVNDLRKELESRALSLKGLKSQLIARLTKQLKVEE [S31L] gave an abundance fitness of -0.084 ± 0.032.
For ISTPTHWSKLDPKTMKVNDLRKELESRALSCKGLKSQLIARLTKQLKVEE [S31C], the abundance fitness was -0.013 ± 0.046.
ISTPTHWSKLDPKTMKVNDLRKELESRALSSKGNKSQLIARLTKQLKVEE [L34N] showed an abundance fitness of -0.157 ± 0.067.
ISTPTHWSKLDPKTMKVNDLRKELESRALSSKGFKSQLIARLTKQLKVEE [L34F] showed an abundance fitness of -0.195 ± 0.052.
Work on ISTPTHWSKLDPKTMKVNDLRKELESRALSSKGSKSQLIARLTKQLKVEE [L34S] yielded an abundance fitness of -0.016 ± 0.037.
ISTPTHWSKLDPKTMKVNDLRKELESRALSSKGIKSQLIARLTKQLKVEE [L34I] showed an abundance fitness of -0.069 ± 0.041.
With ISTPTHWSKLDPKTMKVNDLRKELESRALSSKGTKSQLIARLTKQLKVEE [L34T] the abundance fitness was -0.06 ± 0.045.
In the case of ISTPTHWSKLDPKTMKVNDLRKELESRALSSKGHKSQLIARLTKQLKVEE [L34H], the abundance fitness is reported as -0.026 ± 0.043.
ISTPTHWSKLDPKTMKVNDLRKELESRALSSKGCKSQLIARLTKQLKVEE [L34C] showed an abundance fitness of -0.075 ± 0.043.
For ISTPTHWSKLDPKTMKVNDLRKELESRALSSKGWKSQLIARLTKQLKVEE [L34W], the abundance fitness was -0.151 ± 0.034.
For ISTPTHWSKLDPKTMKVNDLRKELESRALSSKGQKSQLIARLTKQLKVEE [L34Q], the abundance fitness was -0.015 ± 0.037.
In the case of ISTPTHWSKLDPKTMKVNDLRKELESRALSSKGRKSQLIARLTKQLKVEE [L34R], the abundance fitness is reported as 0.048 ± 0.034.
ISTPTHWSKLDPKTMKVNDLRKELESRALSSKGYKSQLIARLTKQLKVEE [L34Y] gave an abundance fitness of -0.033 ± 0.063.
Work on ISTPTHWSKLDPKTMKVNDLRKELESRALSSKGPKSQLIARLTKQLKVEE [L34P] yielded an abundance fitness of -0.011 ± 0.055.
ISTPTHWSKLDPKTMKVNDLRKELESRALSSKGDKSQLIARLTKQLKVEE [L34D] gave an abundance fitness of -0.062 ± 0.067.
Work on ISTPTHWSKLDPKTMKVNDLRKELESRALSSKGMKSQLIARLTKQLKVEE [L34M] yielded an abundance fitness of -0.072 ± 0.051.
With ISTPTHWSKLDPKTMKVNDLRKELESRALSSKGAKSQLIARLTKQLKVEE [L34A] the abundance fitness was -0.111 ± 0.03.
In the case of ISTPTHWSKLDPKTMKVNDLRKELESRALSSKGEKSQLIARLTKQLKVEE [L34E], the abundance fitness is reported as -0.113 ± 0.031.
Variant ISTPTHWSKLDPKTMKVNDLRKELESRALSSKGKKSQLIARLTKQLKVEE [L34K] has an abundance fitness of 0.079 ± 0.038.
ISTPTHWSKLDPKTMKVNDLRKELESRALSSYGLKSQLIARLTKQLKVEE [K32Y] gave an abundance fitness of -0.138 ± 0.045.
Variant ISTPTHWSKLDPKTMKVNDLRKELESRALSSAGLKSQLIARLTKQLKVEE [K32A] has an abundance fitness of -0.153 ± 0.043.
Variant ISTPTHWSKLDPKTMKVNDLRKELESRALSSCGLKSQLIARLTKQLKVEE [K32C] has an abundance fitness of -0.18 ± 0.036.
With ISTPTHWSKLDPKTMKVNDLRKELESRALSSGGLKSQLIARLTKQLKVEE [K32G] the abundance fitness was -0.131 ± 0.045.
For ISTPTHWSKLDPKTMKVNDLRKELESRALSSFGLKSQLIARLTKQLKVEE [K32F], the abundance fitness was -0.213 ± 0.047.
With ISTPTHWSKLDPKTMKVNDLRKELESRALSSRGLKSQLIARLTKQLKVEE [K32R] the abundance fitness was -0.105 ± 0.034.
Variant ISTPTHWSKLDPKTMKVNDLRKELESRALSSTGLKSQLIARLTKQLKVEE [K32T] has an abundance fitness of -0.066 ± 0.049.
Work on ISTPTHWSKLDPKTMKVNDLRKELESRALSSEGLKSQLIARLTKQLKVEE [K32E] yielded an abundance fitness of -0.104 ± 0.032.
Work on ISTPTHWSKLDPKTMKVNDLRKELESRALSSHGLKSQLIARLTKQLKVEE [K32H] yielded an abundance fitness of -0.05 ± 0.062.
Work on ISTPTHWSKLDPKTMKVNDLRKELESRALSSLGLKSQLIARLTKQLKVEE [K32L] yielded an abundance fitness of -0.071 ± 0.036.
Variant ISTPTHWSKLDPKTMKVNDLRKELESRALSSDGLKSQLIARLTKQLKVEE [K32D] has an abundance fitness of -0.092 ± 0.043.
Variant ISTPTHWSKLDPKTMKVNDLRKELESRALSSVGLKSQLIARLTKQLKVEE [K32V] has an abundance fitness of -0.233 ± 0.032.
With ISTPTHWSKLDPKTMKVNDLRKELESRALSSSGLKSQLIARLTKQLKVEE [K32S] the abundance fitness was -0.142 ± 0.042.
In the case of ISTPTHWSKLDPKTMKVNDLRKELESRALSSWGLKSQLIARLTKQLKVEE [K32W], the abundance fitness is reported as -0.089 ± 0.049.
In the case of ISTPTHWSKLDPKTMKVNDLRKELESRALSSNGLKSQLIARLTKQLKVEE [K32N], the abundance fitness is reported as -0.143 ± 0.038.
In the case of ISTPTHWSKLDPKTMKVNDLRKELESRALSSKPLKSQLIARLTKQLKVEE [G33P], the abundance fitness is reported as -1.02 ± 0.077.
